Molecular target: Recombinant human Rac1 (Q2-L177), His-tagged (human, UniProt P63000 2-177)
Test: AlphaScreen or HTRF

binding result: binds
B1: Truncated recombinant human Tiam1 (R1033-E1406), FLAG-tagged (domain or fragment)
chain: RQLSDADKLRKVICELLETERTYVKDLNCLMERYLKPLQKETFLTQDELDVLFGNLTEMVEFQVEFLKTLEDGVRLVPDLEKLEKVDQFKKVLFSLGGSFLYYADRFKLYSAFCASHTKVPKVLVKAKTDTAFKAFLDAQNPKQQHSSTLESYLIKPIQRILKYPLLLRELFALTDAESEEHYHLDVAIKTMNKVASHINEMQKIHEEFGAVFDQLIAEQTGEKKEVADLSMGDLLLHTTVIWLNPPASLGKWKKEPELAAFVFKTAVVLVYKDGSKQKKKLVGSHRLSIYEDWDPFRFRHMIPTEALQVRALASADAEANAVCEIVHVKSESEGRPERVFHLCCSSPESRKDFLKAVHSILRDKHRRQLLKTE
